The target of one test is GST-Nuf2-Ndc80 complex (UniProt Q9BZD4;O14777). Description: pull-down.
In the next test the target is Nuf2-Ndc80 complex (UniProt Q9BZD4;O14777). Description: SEC. Background: In gel filtration, larger molecules generally elute earlier.
Sequence of Nuf2-Ndc80 complex (Q9BZD4 whole entry, chain 1 of 2): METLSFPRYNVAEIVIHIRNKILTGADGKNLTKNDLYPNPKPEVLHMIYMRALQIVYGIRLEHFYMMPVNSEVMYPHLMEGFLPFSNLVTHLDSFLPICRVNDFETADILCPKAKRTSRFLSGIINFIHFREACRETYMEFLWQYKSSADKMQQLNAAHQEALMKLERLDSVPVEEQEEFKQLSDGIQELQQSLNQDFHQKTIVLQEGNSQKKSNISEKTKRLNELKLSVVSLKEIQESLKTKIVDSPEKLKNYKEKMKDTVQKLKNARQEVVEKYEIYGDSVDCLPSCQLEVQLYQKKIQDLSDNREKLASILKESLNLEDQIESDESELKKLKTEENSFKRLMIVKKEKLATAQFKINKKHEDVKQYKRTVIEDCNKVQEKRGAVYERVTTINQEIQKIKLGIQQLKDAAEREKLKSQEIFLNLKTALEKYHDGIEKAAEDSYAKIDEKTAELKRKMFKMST
Sequence of Nuf2-Ndc80 complex (O14777 whole entry, chain 2 of 2): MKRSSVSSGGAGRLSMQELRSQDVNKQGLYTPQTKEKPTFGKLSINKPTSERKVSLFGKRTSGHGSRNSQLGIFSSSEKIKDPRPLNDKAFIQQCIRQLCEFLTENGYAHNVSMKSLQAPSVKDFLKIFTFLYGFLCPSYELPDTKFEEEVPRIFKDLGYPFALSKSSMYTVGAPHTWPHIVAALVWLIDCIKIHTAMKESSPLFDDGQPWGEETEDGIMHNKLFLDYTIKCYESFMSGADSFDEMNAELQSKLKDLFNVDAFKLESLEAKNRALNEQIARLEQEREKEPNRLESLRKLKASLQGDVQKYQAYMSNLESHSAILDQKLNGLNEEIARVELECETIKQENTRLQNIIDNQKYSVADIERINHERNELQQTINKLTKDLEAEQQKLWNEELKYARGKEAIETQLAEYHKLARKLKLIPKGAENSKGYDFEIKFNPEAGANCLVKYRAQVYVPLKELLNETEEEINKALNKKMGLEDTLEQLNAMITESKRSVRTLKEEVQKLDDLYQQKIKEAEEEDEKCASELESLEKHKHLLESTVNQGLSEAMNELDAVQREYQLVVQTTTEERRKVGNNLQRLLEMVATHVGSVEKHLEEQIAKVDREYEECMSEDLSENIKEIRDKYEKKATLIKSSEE

Sequence of GST-Nuf2-Ndc80 complex (Q9BZD4 whole entry, chain 1 of 2): as the sequence (Q9BZD4 whole entry, chain 1 of 2) above
Sequence of GST-Nuf2-Ndc80 complex (O14777 whole entry, chain 2 of 2): as the sequence (O14777 whole entry, chain 2 of 2) above

B1: Ska1-Ska2-Ska3 6A complex (complex)
chain 1: MASSDLEQLCSHVNEKIGNIKKTLSLRNCGQEPTLKTVLNKIGDEIIVINELLNKLELEIQYQEQTNNSLKELCESLEEDYKDIEHLKENVPSHLPQVTVTQSCVKGSDLDPEEPIKVEEPEPVKKPPKEQRSIKEMPFITCDEFNGVPSYMKSRLTYNQINDVIKEINKAVISKYKILHQPKKSMNSVTRNLYHRFIDEETKDTKGRYFIVEADIKEFTTLKADKKFHVLLNILRHCRRLSEVRGGGLTRYVIT
chain 2: MEAEVDKLELMFQKAESDLDYIQYRLEYEIKTNHPDSASEKNPVTLLKELSVIKSRYQTLYARFKPVAVEQKESKSRICATVKKTMNMIQKLQKQTDLELSPLTKEEKTAAEQFKFHMPDL
chain 3: MDPIRSFCGKLRSLASTLDCETARLQRALDGEESDFEDYPMRILYDLHSEVQTLKDDVNILLDKARLENQEGIDFIKATKVLMEKNSMDIMKIREYFQKYGYSPRVKKNSVHEQEAINSDPELSNCENFQKTDVKDDLSDPPVASSCISEKSPRSPQLSDFGLERYIVSQVLPNPPQAVNNYKEEPVIVTPPTKQSLVKVLKAPKCALKMDDFECVAPKLEHFGISEYTMCLNEDYTMGLKNARNNKSEEAIDTESRLNDNVFATPSPIIQQLEKSDAEYTNAPLVPTFCAPGLKIPSTKNSIALVSTNYPLSKTNSSSNDLEVEDRTSLVLNSDTCFENLTDPSSPTISSYENLLRAPAPPEVTKIPEDILQLLSKYNSNLATPIAIKAVPPSKRFLKHGQNIRDVSNKEN
Take B1: in the test with GST-Nuf2-Ndc80 complex, the binding result was “binds”.

B2: Ska1-Ska2-Ska3 6A complex treated with Cdk1/Cyclin B1 (complex)
chain 1: MASSDLEQLCSHVNEKIGNIKKTLSLRNCGQEPTLKTVLNKIGDEIIVINELLNKLELEIQYQEQTNNSLKELCESLEEDYKDIEHLKENVPSHLPQVTVTQSCVKGSDLDPEEPIKVEEPEPVKKPPKEQRSIKEMPFITCDEFNGVPSYMKSRLTYNQINDVIKEINKAVISKYKILHQPKKSMNSVTRNLYHRFIDEETKDTKGRYFIVEADIKEFTTLKADKKFHVLLNILRHCRRLSEVRGGGLTRYVIT
chain 2: MEAEVDKLELMFQKAESDLDYIQYRLEYEIKTNHPDSASEKNPVTLLKELSVIKSRYQTLYARFKPVAVEQKESKSRICATVKKTMNMIQKLQKQTDLELSPLTKEEKTAAEQFKFHMPDL
chain 3: MDPIRSFCGKLRSLASTLDCETARLQRALDGEESDFEDYPMRILYDLHSEVQTLKDDVNILLDKARLENQEGIDFIKATKVLMEKNSMDIMKIREYFQKYGYSPRVKKNSVHEQEAINSDPELSNCENFQKTDVKDDLSDPPVASSCISEKSPRSPQLSDFGLERYIVSQVLPNPPQAVNNYKEEPVIVTPPTKQSLVKVLKAPKCALKMDDFECVAPKLEHFGISEYTMCLNEDYTMGLKNARNNKSEEAIDTESRLNDNVFATPSPIIQQLEKSDAEYTNAPLVPTFCAPGLKIPSTKNSIALVSTNYPLSKTNSSSNDLEVEDRTSLVLNSDTCFENLTDPSSPTISSYENLLRAPAPPEVTKIPEDILQLLSKYNSNLATPIAIKAVPPSKRFLKHGQNIRDVSNKEN
modifications: treated with Cdk1/Cyclin B1 plus ATP; phosphorylated residues not stated
Regarding B2, in the test with GST-Nuf2-Ndc80 complex, the binding result is reported as “binds”.

B3: Ska1-Ska2-Ska3 6D complex (complex)
chain 1: MASSDLEQLCSHVNEKIGNIKKTLSLRNCGQEPTLKTVLNKIGDEIIVINELLNKLELEIQYQEQTNNSLKELCESLEEDYKDIEHLKENVPSHLPQVTVTQSCVKGSDLDPEEPIKVEEPEPVKKPPKEQRSIKEMPFITCDEFNGVPSYMKSRLTYNQINDVIKEINKAVISKYKILHQPKKSMNSVTRNLYHRFIDEETKDTKGRYFIVEADIKEFTTLKADKKFHVLLNILRHCRRLSEVRGGGLTRYVIT
chain 2: MEAEVDKLELMFQKAESDLDYIQYRLEYEIKTNHPDSASEKNPVTLLKELSVIKSRYQTLYARFKPVAVEQKESKSRICATVKKTMNMIQKLQKQTDLELSPLTKEEKTAAEQFKFHMPDL
chain 3: MDPIRSFCGKLRSLASTLDCETARLQRALDGEESDFEDYPMRILYDLHSEVQTLKDDVNILLDKARLENQEGIDFIKATKVLMEKNSMDIMKIREYFQKYGYSPRVKKNSVHEQEAINSDPELSNCENFQKTDVKDDLSDPPVASSCISEKSPRSPQLSDFGLERYIVSQVLPNPPQAVNNYKEEPVIVTPPTKQSLVKVLKDPKCALKMDDFECVDPKLEHFGISEYTMCLNEDYTMGLKNARNNKSEEAIDTESRLNDNVFATPSPIIQQLEKSDAEYTNDPLVPTFCDPGLKIPSTKNSIALVSTNYPLSKTNSSSNDLEVEDRTSLVLNSDTCFENLTDPSSPTISSYENLLRDPDPPEVTKIPEDILQLLSKYNSNLATPIAIKAVPPSKRFLKHGQNIRDVSNKEN
On to B3, for which the binding result with Nuf2-Ndc80 complex and with GST-Nuf2-Ndc80 complex was “binds” each time.

For the origin of these results see article doi:10.1101/680314 (bioRxiv, 2019).
